The record followed here is the DeepSol protein solubility set.

A short description of this series: soluble on expression in E. coli; label from the status in PepcDB or PDB records.
With “MIKIAPSILSADFSKLGEEIKDVEKGGADYIHVDVMDGHFVPNITIGPLIVEAIRPITSLPLDVHLMIENPDNYIPTFAKAGADIITVHVEACPHLHRTIQLIKSHGIKAGVVLNPHTPVSVIEHVLEDIDMVLLMTVNPGFGGQKFIHSVLPKIKQVAEMVKERNLEVEIEVDGGVNAETARLCVEAGANVLVAGSAVYNQKDRGEAIRVIRG”, the “soluble on expression in E. coli” value is given as “soluble”. Consider “MGSDKIHHHHHHMAIRSNHILVSRTDNIGDIVLTLPMVARLRQLNPKAKISFLCRAYAAPLVRFCTDIDEVIELENIADDPAGFLRKSGIDTVILAQPDRTLAQAAFRARVRHRIGNARQKIYLMLYCNRRVRFSKRTTEDHEAQINFRFLSPYGSRDIPTREQIPDLYHFDIPEDKAISDMQAPYAFNLVLHTKSNGHGREWPIEHYAALAELLLARRDVHLWLSGSAKEGEWLKANGGALLAKPNVTSLCGTQTLGQLTTFIHQADGLIASGTGPLHLSAAIGQRTLGLFPPTRPMHPGRWAALGKRAQNLVRDKSCRDCEKLETISCDCMVQLSPQSVLEIVEGWIRDKSAA”, for which the “soluble on expression in E. coli” value was “not soluble”.

“MGSDKIHHHHHHMSEQMFEGWNGAIVVTPETVKIIYGNQHSKGEGEKEITLESIQSIELKKPRFLAQGYIQLILEGSKKKKGALAAMGDEHSIMINDEAQYKQFEQAKELIELFQHEQKLVSEQNEKGEGWREDVFKGGNGTLVVTPETIKIIYSWLHTRGRGEKTINIRSISSIQLKEPAVVAGYIQFTFQGSIENQSRSSFSAIDDQNTIAISNKHQFEDFKRAKALIESYQNQLYAPQIQSSSTSGADELKKYKELLDDGIISEEEFNAKKKQILGI”: the “soluble on expression in E. coli” value is recorded as “not soluble”. Turning to “MRTKYILELFDTSEQHKPIARFESSTPFTAASVGERFDDIGWERLDGAGKIASPLSPKRYTVHSAKHLVIVEAGALVIKYCLNLEPFSGPSSPVWGDE”, the “soluble on expression in E. coli” value is recorded as “not soluble”.

“MSLEKAPHLTILVSIDGFRADYLDRGDTPVMKALAENGARAAMRPSFPSVTFPNHYTLITGKRPDRNGIVANTMVDPSVSAEKFTMRSLDPAWWSQAKPFWVSVEQQGKRAAAMFWPGSEVEIDGVRPSRWVKFDQTMPGDARVDQVLNWLDSADGPPIAFSTLYFDIVDTQGHHYGPESPEVRAAAASVDAALGRLVAGLKARGRFESTDIVIVADHGMAPLPAANRVVLDDLVDVSKIRLVTTGAVTAFSPMPGERKAVEAAFLSKPLPHMTCWKKNRIPARFHYGRNSRVPAIVCLSETGWYTTTEAAKQKPSEWDGKDGGAHGFDPYDPTMQAVFVAHGPSFKSGVALPAFDNVDVYALLAKVTGVRPEKTDGSLKVVREEGHHHHHH”: the “soluble on expression in E. coli” value is given as “not soluble”. For “TDPDCDRVGIVVKDSSGEYVVLNGNQVGSLLVRYILESLVEENKLPKNNPTIIKTIVTSELGAKIAKAYNVDCLNTLTGFKFIGEKIKAFEESNDRSFIMGYEESYGYLIGTHARDKDGVVSSLMICEMAAYYSSKGMNLYEALIDTYNKFGY” the value was “not soluble”.

On to “MGSDKIHHHHHHMLDQQHIQYFKNLVGGEDFFTDLAHLNAYCYDATKERHLPSGVIFPKNEQEISQILKYCNEHRIIVVPRGAGSGFTGGALSVSGGLVLSVEKHLDKILEIDTKNLIARVEPGVINKHFQNEVEKLNLFYPPDPASENQSTLGGNVAENAGGMRAAKYGITKDYVMALRVVLANGEIIRAGKKTIKDVAGFNVAGLMIASEGCLGVISEITLKLLAKPPLKQSAMGVFNHIEDAMNAVYKTMSSGVTPVAMEFLDNLSIKAVEERFSKGLPKDAGAILITQVDGVVKEQIAWQLNEIEKHFKANCCVDFKIAQNEQEEQDLWFSRRNASQSISVYGKKKLNEDVTVPRASLPSLLQEVAKISQKYGFKIPCFGHTGDGNVHVNIMLEDPKRDLEKGHEAMEEIFQAAISLEGTLSGEHGIGLSKAKFMPLAFNHSEMELFRNIKKALDPNNILNPFKMGL”, for which the “soluble on expression in E. coli” value was “not soluble”.

Regarding “MIVLGIESSCDETGVGIIDLADDGTMTIVGDAVASSMEQHARFGGVVPEIASRAHLESMIPVMKEALAQAGVERPDAVAATVGPGLAGALLVGASAAKAYAAAWGVPFYGVNHLGGHVAVANLEGEELPHSIALLVSGGHTQILEVQAVGKPMRELGSTLDDAAGEAYDKVARLLGLGYPGGPVVDKLAARGNRKAIRFPRGLSRADDLRGEHRYDFSFSGVKTSVARYVESAEREGRVISVEDVCASFQEAVVDVLTSKAIMACKDTGASVLLLGGGVAANSRLRELAAARCQSASIELRVPSFKLCTDNGVMIAAVASQLIHEGAQPSGLSVGTDTSLEVEIPLVHSL”, the “soluble on expression in E. coli” value is given as “not soluble”.

For the sequence “MSLKPKRILLVNEQRSFQVMMKAMLINIGISRITYANSAEEARRRCQKETFDIYLLDYELGVGENGRQLLESLRDQKLIPPQSVVIMVSGDSSRAMVLSALEAEPDEYLMKPFSQEQFSFRLKRALARRQALESVFSALAKEDLPTLLAACAERADAVPRFANFCRCLQADTQLKLGQAKEARSLMRQLLAGQENSWARLTLGKACHTLGLNEEAVSHLQATLKNTPLMVEAHLWLAESQLALGNDEQAQQELKRAVDISPQSVQLSRRLAEVCLLRHDYAQAKDVLLSLIDLSRNSIHRTPHYLGAYIQSLTLYALNSNDIYHIANLQKQVNSALSRIRDSLMMSEFNYPVFEQICQARVQIALGELLKGKKMLYRANQNWLDQPATMPPSLLGETILALYQLGEFEYAESLQALLAEDEDRLLTTCIQATRDDKTVLERRQRYQQLNELGIKAYQSGELEQALGHFREALRRAPANTGAALNKIQVLLQLMQKNRKSPEFGAECKETLEVLDGIPLNPAQQDRFRKLRQEFTQLSEGHHHHHH”, the “soluble on expression in E. coli” value is “soluble”. The same measure for “MLEPSHNDELPPIPGKRYFTIGEVSELCAVKPHVLRYWEQEFPQLNPVKRRGNRRYYQRLDVLMIRQIRGLLYDQGFTIGGARLRLTAGEPKDDTQQYKQMIREMIAELEDVLVMLKA”: “not soluble”; for “MFQQLSARLQEAIGRLRGRGRITEEDLKATLREIRRALMDADVNLEVTRDFVERVREEALGKQVLESLTPAEVILATVYEALKEALGGEARLPVLKDRNLWFLVGLQGSGKTTTAAKLALYYKGKGRRPLLVAADTQRPAAREQLRLLGEKVGVPVLEVMDGESPESIRRRVEEKARLEARDLILVDTAGRLQIDEPLMGELARLKEVLGPDEVLLVLDAMTGQEALSVARAFDEKVGVTGLVLTKLDGDARGGAALSARHVTGKPIYFAGVSEKPEGLEPFYPERLAGRILGMGDVASLAEKVRAAGLEAEAPKSAKELSLEDFLKQMQNLKRLGPFSEILGLLPGVPQGLKVDEKAIKRLEAIVLSMTPEERKDPRILNGSRRKRIAKGSGTSVQEVNRFIKAFEEMKALMKSLEKKKGRGLM”: “soluble”; for “MAAYRADDDYDFLYKVVLIGDSGVGKSNLLSRFTRNEFSLESKSTIGVEFATRSIHVDEKIVKAQIWDTAGQERYRAITSAYYRGAVGALLVYDVTRHVTFENVERWLKELRDHTEANIVIMLVGNKADLRHLRAVSTEDAKAFAERENTFFMETSALEALNVENAFTEVLSQIYRVASKKALDIGDDHTTLPKGQSINVGSKDDVSEVKKVGCCSS”: “soluble”. With “MHQAPATSTDENPPIESDVPMHHVYPSHHHHQHYQLPHLQQHPHPYSYPLYTFPYPIAPAFHQAQNPPMTSSVASGANGEHHHQPQQFFAPQYQVIPAGAIPVSTINIDPSQICPVDQMGMWTLPPPTGPNGMRYGIPIPAPLVPQITSSIMEASKMTSSTHTNATILNAMTASTSSNDSSSESGVSGVKEAKDEKKKSKIQADEKLRHEERQSTSDYTDDDPIPFTSRRSITGSVSYNYAEQIAERRRVEQQQEDRERQEMLEVERQRRVLEDRRNSEEEIRKQAELDRVEKDRLRMEQAAAAMEKARKEAELAKRARIYKHVFRGAEEEGGTEQLEELEQKILGVDIETGRRLLKEVSEVEWHKKQDEAEIRKNAPPQSDRSAHNLSSLSSGNQSARGRSSSISSPCKPDTSFTRNSIGRRSVRTTSREKQQESPKSSDQAVQHPLAASTPVRRPPRQPQALPTQDEIHVAREVPLANKSTTPSPTRSEMLRSAAIYCPINRDPLSQREELRAINRSTSNTGAYHNNNNNNNSKFEGAGVSRYNEITQTALFGPIATRNSIRRGTMRGTGLPSPPSVRVSTQNHQNQQRTSSFDESSSGGEEGGSISPDLGHKNFESPLPSSTENVHPASNSPPMKQIEGFEFKTPTRARSALSSPMSNFMNGGDNDSPISRPASRLMQRLEQKGTIRRDDEIISQEIRRVAETNLSRSPSLASLRGSMSNLAFRASQLNLAGTSGELPPNLTKFASVNSPARQSLSSMKKTTDRQAAVLERLGRLRESLHAGKNYTPPRNGISSSSRITTPAQTPPISPRPVM”, the “soluble on expression in E. coli” value is given as “not soluble”. For “MQLSRQDEPLYLGLAETLRDELAGYQPGDYLPAEFQLAERFSVNRHTIRRAVDELVREGSVLRRQGKGTQVLERPLIYPMQADSAYSQSLSAQGVGVEAILLLRRECQASHEDALHLGLAEHAPVIELQTLRKLDGQAVSLIFHRYSAVYHELLADYQGGSVRQYLAECGLPLSRAQSLIGARLPSREEAGLLLMPRHMPALTVLTVSCDGAGQPVELSRSVSRSDRFQYQVATAIPTR” the value was “not soluble”. For “MQLILLLVSLLMLIATFIEARDSDIDKKSLRTERLGFCPRYETWRKCGNGCEKSCTHPRQPPFSQCKLPCIPYSCRCNPGFYRDNQGTGRCVRLRRCKKW” the value was “not soluble”; for “MSLNPASMKYEDQEFVIFDVETTGLSSVYDTIIEIGAVKMKNGEVIDRFDKFINPHHPLSETTINLTSITDEMVQAADDEAVVIKQFMDFYGNDPLCGHNVQFDVGFVDAALKRCGYPEISQPVVDTLEVSRLLHPEQSRHTLDSLCRKYNVPLEHHHRANQDAEATGYLMFKLLDAFNDKYQEDDLGKMNDYSNGEGYKRARPTHITVLAQNQKPGLRNLYELVSLAGIKYNFKGLRTPKSELRRLHAGLLYGSACSQGEVFIAMMQKGYEEAKKKAEFYDFLEIQPPSNYSSLIADGLIADEAQLEEILTNIYKLGRELNKPVVATSDAHYIDKHEAIYRDVLLAAQRGNPNRNKQHPDLHFYTTQEMLDEFSFMGEDIAKEVVISNPNKINAMIDEGVQPVQDESFPPKIPHTAERVRKLTYDKAHELYGDPLPDNIQARLDRELDAIIGNGYGVVYLISQMLVAKSVKDGYLVGSRGSVGSSLVATMMGITEINPMPPHYRCPKCKQSEFFENGEYASGFDLPDKKCPDCQVMMVKDGQNIPFETFLGFHGDKVPDIDLNFSGDYQPVAHNFIRVMFGPNHSFKAGTVGTLADKKAIGYVKHYQDEHPEIKMNNAEVDRLAIGVTGVKATTGQHPAGIVVLPDDKDIYELTPLQYPSDDISKEWKTTHFDFHQIHDNLLKFDILGHQDPTMIRMLQDLSGIDPLTIPTDDPKVMSLFSSPEALGVTPEQINSKTGTLGLPEFGTPFVRGMLEETKPSTFAELLQISGLSHGTDVWLGNAEELINNGTCKLKNVIGCRDNIMTDLIRWGVKEEVAFSTMETVRKGKGISDENMAVLKENKNIPDWYIPSCLKIKYMFPKAHAAAYILMALRVAWFKVYYPEIYYAAYFSVRADKVDLEAMSRGKNTVVALINRIKEKGTAATKLEKDLQTYMELVNEAIERGINFKMVDINESEATTYKIVDKHTILAPFNAVDGLGDSAAKQIVAARSEAPFLSKEDLQVRGKVSQKIMDFFENNNVLEGMPDQNQLSLFEGHHHHHH”, “soluble”.
